Drawing on patent US20170233451A1, this text covers % of cells in the quadrant Anti-hPD-L1 488 positive, HAC 594 negative (lower right) for 1 substance.

For this assay, the target named is human PD-L1 on cells (IFN-gamma-induced SK-MEL-28 melanoma cells; CT26-Tg(hPD-L1)-delta(mPD-L1) cells and tumors) (human) (UniProt Q9NZQ7). Kind of assay: flow cytometry of a dissociated CT26 hPD-L1 positive tumor four hours after intraperitoneal injection of both labeled agents; same quadrant of the PD-L1 negative tumor: 3.97. (In general: Flow cytometry measures light scatter and fluorescence of single cells or particles in a stream.)
Sequence of human PD-L1 on cells (IFN-gamma-induced SK-MEL-28 melanoma cells; CT26-Tg(hPD-L1)-delta(mPD-L1) cells and tumors) (human) (Q9NZQ7 19-290 limits assumed, stated change not applied): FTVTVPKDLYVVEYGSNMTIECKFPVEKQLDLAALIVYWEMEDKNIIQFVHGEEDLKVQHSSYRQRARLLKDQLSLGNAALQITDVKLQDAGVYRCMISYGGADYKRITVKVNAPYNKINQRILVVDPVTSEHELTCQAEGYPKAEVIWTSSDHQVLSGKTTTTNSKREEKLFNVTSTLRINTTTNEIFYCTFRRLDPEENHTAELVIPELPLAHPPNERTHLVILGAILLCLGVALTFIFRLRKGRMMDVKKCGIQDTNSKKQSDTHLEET

In turn, “AlexaFluor488-labeled anti-PD-L1 antibody (clone 29E.2A3, BioLegend)” returned a % of cells in the quadrant Anti-hPD-L1 488 positive, HAC 594 negative (lower right) of 2.22%.
